This experiment addresses T1, human Galectin-3 (human, UniProt P17931 1-250, limits assumed).
T1 construct: also called Gal-3; Gal3
As to the kind of experiment: in vitro affinity; method and format not stated.

T1 sequence (P17931 whole entry): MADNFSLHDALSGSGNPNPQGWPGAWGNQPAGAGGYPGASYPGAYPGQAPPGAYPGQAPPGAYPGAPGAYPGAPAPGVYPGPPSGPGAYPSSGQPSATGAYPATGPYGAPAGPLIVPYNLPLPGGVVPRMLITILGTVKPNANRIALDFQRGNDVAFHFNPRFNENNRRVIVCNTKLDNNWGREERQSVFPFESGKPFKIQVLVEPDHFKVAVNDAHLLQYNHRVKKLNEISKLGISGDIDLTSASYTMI

B1: TB006 (antibody, human IgG4 S228P, kappa, V domains shown)
VH: QVQLVQSGAEVKKPGASVKVSCKASGYSFTNYYMHWVRQAPGQRLEWMGWIYPGSGNTNYNEKFQGRVTITADTSASTAYMELSSLRSEDTAVYYCSTAPGGFDVWGQGTTVTVSS
VL: DIVMTQTPLSLSVTPGQPASISCKSSKSLLHSDGITYLYWYLQKPGQSPQLLIYRMSNLASGVPDRFSGSGSGTDFTLKISRVEAEDVGVYYCAQMLEFPLTFGQGTKLEIKR
notes: also called anti-Gal3 antibody; humanized IgG4 (S228P) type monoclonal antibody
For the molecule B1, the Kd (as a rule, a measure of binding affinity in units of concentration) turned out to be 8.4 nM.

These data come from patent US20260250396A1 (TRUEBINDING, published 2026).
